Data published in patent US20140087995A1 (published 2014).
Numbered stars: 1 amine (or outer) side, 2 acyl side, 3 side chain; on linkers, the order of the positions; unused ones are H or OH. Bridge positions count the residues as written; N and C are the ends. * marks the point of attachment. C20 diacid = O=C(O)CCCCCCCCCCCCCCCCCCC(=O)*; γGlu = O=C(O)[C@H](CCC(=O)[*:2])N[*:1]

T1: human calcitonin receptor (human, UniProt P30988 25-474)
T1 construct: whole, on cells; Cell membranes of a stably transfected BHK cell line (Assay VII); also called hCTR; hCT
T1 sequence (looked up): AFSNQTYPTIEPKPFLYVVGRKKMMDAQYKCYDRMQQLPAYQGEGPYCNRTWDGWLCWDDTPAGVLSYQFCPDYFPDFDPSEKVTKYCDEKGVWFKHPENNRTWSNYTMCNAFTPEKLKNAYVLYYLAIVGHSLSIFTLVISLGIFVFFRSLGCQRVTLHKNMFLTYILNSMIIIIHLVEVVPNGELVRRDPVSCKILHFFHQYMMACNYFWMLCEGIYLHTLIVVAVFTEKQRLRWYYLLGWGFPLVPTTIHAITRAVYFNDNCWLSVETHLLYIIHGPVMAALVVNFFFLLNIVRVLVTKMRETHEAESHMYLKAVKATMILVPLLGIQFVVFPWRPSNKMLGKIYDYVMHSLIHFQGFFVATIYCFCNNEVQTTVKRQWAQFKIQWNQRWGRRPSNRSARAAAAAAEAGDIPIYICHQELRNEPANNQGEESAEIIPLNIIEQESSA

T2: rat calcitonin receptor (rat, UniProt P32214 25-516)
T2 construct: whole, on cells; Cell membranes of transiently transfected BHK tk'ts 13 cells (Assay VIII); also called rCTR; rCT
T2 sequence (looked up): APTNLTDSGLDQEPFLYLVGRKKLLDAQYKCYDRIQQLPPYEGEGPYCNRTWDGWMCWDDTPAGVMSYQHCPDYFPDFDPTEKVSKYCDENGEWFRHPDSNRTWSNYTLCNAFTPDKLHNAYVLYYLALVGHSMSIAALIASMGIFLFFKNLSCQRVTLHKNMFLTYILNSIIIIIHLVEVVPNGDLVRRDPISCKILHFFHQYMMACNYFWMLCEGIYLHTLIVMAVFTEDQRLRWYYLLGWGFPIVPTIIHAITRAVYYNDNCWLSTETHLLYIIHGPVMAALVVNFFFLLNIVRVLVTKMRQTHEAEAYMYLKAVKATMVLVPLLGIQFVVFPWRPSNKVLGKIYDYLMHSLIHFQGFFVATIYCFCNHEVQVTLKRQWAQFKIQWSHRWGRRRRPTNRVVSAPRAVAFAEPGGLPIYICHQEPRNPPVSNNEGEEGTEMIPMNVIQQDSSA

T3: rat amylin receptor (rat calcitonin receptor + rat RAMP 3) (rat, UniProt P32214 25-516; Q9JJ73 23-147)
T3 construct: whole, on cells; Cell membranes of transiently transfected BHK tk'ts 13 cells (Assay VI); also called rAmylin-R; rat amylin 3(a) receptor
T3 sequence (looked up) 1: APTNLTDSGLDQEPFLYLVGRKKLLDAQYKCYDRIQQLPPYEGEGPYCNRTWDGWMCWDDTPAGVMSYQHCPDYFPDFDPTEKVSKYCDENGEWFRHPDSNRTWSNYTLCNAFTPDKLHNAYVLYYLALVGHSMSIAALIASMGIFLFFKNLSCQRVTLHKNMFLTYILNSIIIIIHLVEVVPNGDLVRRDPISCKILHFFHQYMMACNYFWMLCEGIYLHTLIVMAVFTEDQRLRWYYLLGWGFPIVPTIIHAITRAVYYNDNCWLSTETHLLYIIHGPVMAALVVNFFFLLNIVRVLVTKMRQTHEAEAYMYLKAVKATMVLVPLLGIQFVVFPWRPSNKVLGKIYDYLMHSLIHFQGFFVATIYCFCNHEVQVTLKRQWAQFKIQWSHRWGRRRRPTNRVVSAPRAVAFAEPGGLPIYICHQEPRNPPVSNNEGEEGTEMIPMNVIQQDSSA
T3 sequence (looked up) 2: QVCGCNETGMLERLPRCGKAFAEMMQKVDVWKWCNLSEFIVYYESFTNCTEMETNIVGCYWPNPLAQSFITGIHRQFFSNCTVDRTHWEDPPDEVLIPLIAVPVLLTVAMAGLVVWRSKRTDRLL

T4: human calcitonin receptor (human, UniProt P30988 25-474)
T4 sequence (looked up): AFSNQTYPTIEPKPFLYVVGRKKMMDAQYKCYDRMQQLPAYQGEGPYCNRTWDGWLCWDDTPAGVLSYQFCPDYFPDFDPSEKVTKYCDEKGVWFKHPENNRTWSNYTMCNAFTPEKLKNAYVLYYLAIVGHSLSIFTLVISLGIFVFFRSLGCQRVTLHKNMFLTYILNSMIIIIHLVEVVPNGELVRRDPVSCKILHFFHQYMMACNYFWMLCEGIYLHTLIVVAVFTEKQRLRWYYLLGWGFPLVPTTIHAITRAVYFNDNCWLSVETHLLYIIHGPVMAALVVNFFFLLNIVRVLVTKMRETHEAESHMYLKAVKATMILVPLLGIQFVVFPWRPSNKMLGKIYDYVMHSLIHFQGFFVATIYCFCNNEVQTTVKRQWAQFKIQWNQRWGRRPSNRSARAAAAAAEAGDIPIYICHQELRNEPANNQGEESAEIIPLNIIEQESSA

T5: human amylin receptor (amylin 3(a) receptor: human calcitonin receptor with RAMP-3) (human, UniProt P30988 25-474; O60896 24-148, limits assumed)
T5 construct: whole, on cells; Whole cells in the luciferase assay (Assay II a); also called hAmylin-R; hAmylinR
T5 sequence (looked up) 1: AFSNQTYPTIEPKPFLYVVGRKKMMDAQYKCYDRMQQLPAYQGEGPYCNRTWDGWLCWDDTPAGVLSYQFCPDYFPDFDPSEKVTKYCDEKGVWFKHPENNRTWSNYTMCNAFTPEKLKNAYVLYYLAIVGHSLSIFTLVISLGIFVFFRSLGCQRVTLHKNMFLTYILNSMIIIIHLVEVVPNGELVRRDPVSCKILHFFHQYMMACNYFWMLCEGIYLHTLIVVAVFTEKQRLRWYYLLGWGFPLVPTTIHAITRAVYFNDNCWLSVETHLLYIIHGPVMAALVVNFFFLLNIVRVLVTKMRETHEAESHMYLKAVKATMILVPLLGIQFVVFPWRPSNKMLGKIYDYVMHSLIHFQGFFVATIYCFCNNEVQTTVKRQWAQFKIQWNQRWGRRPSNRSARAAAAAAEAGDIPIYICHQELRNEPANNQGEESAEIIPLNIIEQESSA
T5 sequence (looked up) 2: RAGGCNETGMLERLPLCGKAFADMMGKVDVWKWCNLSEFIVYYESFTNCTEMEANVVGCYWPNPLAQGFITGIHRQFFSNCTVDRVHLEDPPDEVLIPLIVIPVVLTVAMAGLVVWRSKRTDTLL


Experiments:
[1] = molecular target: T1, human calcitonin receptor; assay: ratio IC50 human calcitonin receptor / IC50 human amylin receptor
Experimental: The resulting pellet was resuspended, homogenized and centrifuged (20.000 rpm, 15 min) in a buffer containing 20 mM Na-HEPES and 0.1 mM EDTA (pH 7.4, buffer 2). The resulting pellet was resuspended in buffer 2 and protein concentration was measured (BCA protein Assay, Pierce). The homogenate was kept cold during the whole procedure. The membranes were kept at −80° C. until use. The assay was performed in a 384 well Optiplate (PerkinElmer) in a total volume of 40 ul. Membranes were mixed with SPA beads. Final concentration of membranes 35 ng/μL final and SPA beads was 0.05 mg/well. Test-compounds were dissolved in DMSO and further diluted in assay buffer (50 mM Hepes, pH 7.4, 1 mM CaCl2, 5 mM MgCl₂, 0.1% OA and 0.02% Tween20). […] The final mixture was incubated with shaking at 400 rpm for 120 min at 25° C. prior to centrifugation (1500 rpm, 10 min). Samples were analyzed on TopCounter™ (Packard). The IC₅₀ was calculated using (one site binding competition analysis) GraphPad Prism5 as a measure of receptor affinity.
Membranes were prepared in the following way; the cells were rinsed with PBS and incubated with Versene for approximately 5 min before harvesting. The cells were flushed with PBS and the cell-suspension was centrifuged for 5 min at 1000 rpm. Cells were homogenized (Ultrathurrax) in a buffer containing 20 mM Na-HEPES and 10 mM EDTA (pH 7.4) and centrifuged at 20.000 rpm for 15 min. The resulting pellet was resuspended, homogenized and centrifuged (20.000 rpm, 15 min) in a buffer containing 20 mM Na-HEPES and 0.1 mM EDTA (pH 7.4, buffer 2). The resulting pellet was resuspended in buffer 2 and protein concentration was measured (BCA protein Assay, Pierce). The homogenate was kept cold during the whole procedure. The membranes were kept at −80° C. until use. Assay was performed in a 384 well Optiplate (PerkinElmer) in a total volume of 40 ul. Membranes were mixed with SPA beads.

rat calcitonin receptor [2] = molecular target: T2, rat calcitonin receptor; assay: ratio IC50 rat calcitonin receptor / IC50 rat amylin receptor
rat calcitonin receptor [3] = molecular target: T2, rat calcitonin receptor; assay: SPA competition vs 125I-calcitonin, membranes with rat CTR (Assay VIII)
[4] = molecular target: T3, rat amylin receptor (rat calcitonin …); assay: SPA competition vs 125I-rat amylin, membranes with rat CTR + rat RAMP3 (Assay VI)
[5] = molecular target: T4, human calcitonin receptor; assay: cell-based or functional assay
[6] = molecular target: T5, human amylin receptor (amylin 3(a) …); assay: SPA competition binding on membranes of BHK cells with human calcitonin receptor + RAMP-3; displacement of 125I-rat amylin (Assay V)
In short: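 One-site competition analysis of SPA counts yielded IC₅₀ as a measure of affinity. Membranes were at 35 ng/μL final; incubation was 120 min at 25° C, pH 7.4.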

Row | Binder | Ratio hCT/hAmylin binding [1] | Ratio rCT/rAmylin binding (rat calcitonin receptor [2]) | IC50 (rat calcitonin receptor [3]) [nM] | IC50 [4] [nM] | Ratio hCT/hAmylin funct. [5] [ratio] | IC50 [6] [nM]
1 | {C20 diacid-γGlu-γGlu}-KCNTATCATQRLAEFLRHSSPNFGAIPSSTNVGSNTY-NH2 (disulfide 2-7; SMILES CC[C@H](C)[C@H](NC(=O)[C@H](C)NC(=O)CNC(=O)[C@H](Cc1ccccc1)NC(=O)[C@H](CC(N)=O)NC(=O)[C@@H]1CCCN1C(=O)[C@H](CO)NC(=O)[C@H](CO)NC(=O)[C@H](Cc1c[nH]cn1)NC(=O)[C@H](CCCNC(=N)N)NC(=O)[C@H](CC(C)C)NC(=O)[C@H](Cc1ccccc1)NC(=O)[C@H](CCC(=O)O)NC(=O)[C@H](C)NC(=O)[C@H](CC(C)C)NC(=O)[C@H](CCCNC(=N)N)NC(=O)[C@H](CCC(N)=O)NC(=O)[C@@H](NC(=O)[C@H](C)NC(=O)[C@@H]1CSSC[C@H](NC(=O)[C@H](CCCCN)NC(=O)CC[C@H](NC(=O)CC[C@H](NC(=O)CCCCCCCCCCCCCCCCCCC(=O)O)C(=O)O)C(=O)O)C(=O)N[C@@H](CC(N)=O)C(=O)N[C@@H]([C@@H](C)O)C(=O)N[C@@H](C)C(=O)N[C@@H]([C@@H](C)O)C(=O)N1)[C@@H](C)O)C(=O)N1CCC[C@H]1C(=O)N[C@@H](CO)C(=O)N[C@@H](CO)C(=O)N[C@H](C(=O)N[C@@H](CC(N)=O)C(=O)N[C@H](C(=O)NCC(=O)N[C@@H](CO)C(=O)N[C@@H](CC(N)=O)C(=O)N[C@H](C(=O)N[C@@H](Cc1ccc(O)cc1)C(N)=O)[C@@H](C)O)C(C)C)[C@@H](C)O, Acylated analogue of human amylin; also called compound 15) | 26 |  |  |  |  | 
2 | KCNTATCATQRLANFLRHSSPNFGAIPSSTNVGRNTY (C20 diacid-gGlu on alpha-amino of the N-terminal residue; Cys2-Cys7 disulfide; C-terminal amide (as human amylin), Acylated analogue of human amylin; also called compound 39) [N^α1-[(4S)-4-carboxy-4-(19-carboxynonadecanoylamino)butanoyl]-[Arg17,Pro21,Pro27,Arg34]-h-amylin] | 29 | 54.5 | 96.4 | 1.77 |  | 
3 | KCNTATCATQRLANFLRHSSPNFGAIPSSTNVGHNTY (C20 diacid-gGlu on alpha-amino of the N-terminal residue; Cys2-Cys7 disulfide; C-terminal amide (as human amylin), Acylated analogue of human amylin; also called compound 40) [N^α1-[(4S)-4-carboxy-4-(19-carboxynonadecanoylamino)butanoyl]-[Arg17,Pro21,Pro27,His34]-h-amylin] | 31.1 | 46.2 | 69.2 | 1.5 |  | 
4 | KCNTATCATQRLAEFLRHSSPNFGAIPSSTNVGSNTY (C20 diacid-gGlu-2xOEG on alpha-amino of the N-terminal residue; Cys2-Cys7 disulfide; C-terminal amide (as human amylin), Acylated analogue of human amylin; also called compound 19) | 36.7 | 93.6 | 95.6 | 1.02 |  | 
5 | KCNTATCATQRLANFLRHSSPNFGAIPSSTNVGSETY (C20 diacid-gGlu on alpha-amino of the N-terminal residue; Cys2-Cys7 disulfide; C-terminal amide (as human amylin), Acylated analogue of human amylin; also called compound 23) [N^α1-[(4S)-4-carboxy-4-(19-carboxynonadecanoylamino)butanoyl]-[Arg17,Pro21,Pro27,Glu35]-h-amylin] | 25 | 71.3 | 79.9 | 1.12 |  | 
6 | KCNTATCATQRLANFLRHSSPNFGAIPSSTNVGSKTY (C20 diacid-gGlu on alpha-amino of the N-terminal residue; Cys2-Cys7 disulfide; C-terminal amide (as human amylin), Acylated analogue of human amylin; also called compound 34) [N^α1-[(4S)-4-carboxy-4-(19-carboxynonadecanoylamino)butanoyl]-[Arg17,Pro21,Pro27,Lys35]-h-amylin] | 64.4 | 52 | 89.2 | 1.72 |  | 
7 | {C20 diacid-γGlu}-GRCNTATCATQRLAAFLRHSSPNFGAIPSSTNVGHNTY-NH2 (disulfide 3-8 (inferred)) |  |  |  |  | 4.9 | 0.426
8 | {C20 diacid-γGlu}-GRCNTATCATQRLAHFLRHSSPNFGAIPSSTNVGPNTY-NH2 (disulfide 3-8 (inferred)) |  |  |  |  | 2.9 | 0.217
